Reference: publication PMC7614096, “Head-to-tail polymerization by VEL proteins underpins cold-induced Polycomb silencing in flowering control” (Cell Reports, 2022)

B1: Lip-VEL1VEL (residues 589–692), wild type [Arabidopsis thaliana] / itself (parent)
chain: SDEIKNRQARIEISMKDNCNNGDHSANGGTESGLEHCVKIIRQLECSGHIDKNFRQKFLTWYSLRATSQEIRVVKIFIDTFIDDPMALAEQLIDTFDDRVSIKR
B2: Lip-VIN3VEL (residues 500–603), wild type [Arabidopsis thaliana] / itself (parent)
chain: GKQGGNKRFKSRTVSLNEKPEINNAANGVGDKDLGHIVKTIRCLEEEGHIDKSFRERFLTWYSLRATHREVRVVKIFVETFMEDLSSLGQQLVDTFSESILSKR

Legend:
Assay in all cases: SEC-MALS
itself [1] = variants of: B1; conditions: with itself; 255 µM sample; predicted molecular mass 23.4 kDa
itself [2] = variants of: B1; conditions: with itself; 255 µM sample; predicted molecular mass 23.4 kDa; remark: listed apart in the source
itself [3] = variants of: B2; conditions: with itself; predicted molecular mass 20.3 kDa; concentration not given
itself [4] = variants of: B2; conditions: with itself; predicted molecular mass 20.3 kDa; concentration not given; remark: listed apart in the source

screen value (itself [1]) [molecules] | screen value (itself [2]) [kDa] | screen value (itself [3]) [molecules] | screen value (itself [4]) [kDa] | Variant
– | – | 1.6 | 33.5 | GKQGGNKRFKSRTVSLNEKPEINNAANGVGDKDLGHIVKTIRCLEEEGHIDKSFRERFLTWYSDRATHREVRVVKIFVETFMEDLSSLGQQLVDTFSESILSKR
– | – | 1.2 | 23.8 | GKQGGNKRFKSRTVSLNEKPEINNAANGVGDKDLGHIVKTIHCLEEEGHIDKSFRERFLTWYSLRATHREVRVVKIFVETFMEDLSSLGQQLVDTFSESILSKR

The next lines start with the variant.

Variant | screen value (itself [1]) [molecules] | screen value (itself [2]) [kDa] | screen value (itself [3]) [molecules] | screen value (itself [4]) [kDa]
SDEIKNRQARIEISMKDNCNNGDHSANGGTESGLEHCVKIIRQLECSGHIDKNFAQDFLTWYSLRATSQEIRVVKIFIDTFIDDPMALAEQLIDTFDDRVSIKR | 1.1 | 25 | – | –
GKQGGNKRFKSRTVSLNEKPEINNAANGVGDKDLGHIVKTIRCLEEEGHIDKSFREDFLTWYSLRATHREVRVVKIFVETFMEDLSSLGQQLVDTFSESILSKR | – | – | 1.2 | 24.6
